One molecule from patent CN114106174A (SUZHOU SCENE MEDICAL SCIENCE AND TECH LIMITED COMPANY, dated 2022) can be followed below.

The target in the assay is T1, OX40 on OX40-overexpressing cells (OX40过表达细胞表面OX40) (UniProt P43489 29-277, limits assumed).
T1 construct: whole, on cells; The cell line and the construct of the overexpressing cells are not described; also called CD134; TNFRSF4
T1 sequence (looked up): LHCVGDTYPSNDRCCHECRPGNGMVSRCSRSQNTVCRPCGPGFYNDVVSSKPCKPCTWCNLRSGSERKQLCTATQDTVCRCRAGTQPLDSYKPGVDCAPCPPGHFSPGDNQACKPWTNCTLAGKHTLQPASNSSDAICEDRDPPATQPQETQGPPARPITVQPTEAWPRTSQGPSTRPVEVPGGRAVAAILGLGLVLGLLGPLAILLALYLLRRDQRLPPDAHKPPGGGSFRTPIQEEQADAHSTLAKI
The assay is described as follows: flow cytometry, hybridoma supernatant on OX40-overexpressing cells, goat anti-mouse IgG-PE.

B1: 15A7-6 (antibody, V domains shown)
VH: QVQLQESGPGLVKPSGTLSLTCAVSGGSINSSSWWSWVRQPPGKGLEWIGEIYHSGDTNYNPSLKSRVAISVDKSKNQFSLKLSSVTAADTAVYYCARDQADYFGSGNYVYWGQGTLVTVSS
VL: EIVLMQYPGTLSLSSGERRVLSCRPSQSVSSSYLAWYQQKPGQAPRLLIYGASSRASGIPDRFSGSGSGTDFTLTISRLEPEDFAVYYCQQYGSLPITFGQGTRVEIKR
B1: the Y586通道PE荧光值 stood at 181000.
